According to article PMC13546301, “Ternary Neurexin-T178-PTPR complexes represent a pre-synaptic core-module of neuronal synapse organization” (Nature Communications, 2026):

Biological target: T1, V5-tagged PTPRS (UniProt B0V2N1 30-1907)
T1 construct: Receptor-type tyrosine-protein phosphatase S; cDNA GenBank BC083188.1; also called PTPRSV5; source: tsA201 cells, transfected, CL-91-solubilised membrane fraction; not shown: V5, C-terminal, kept
Test: affinity purification with mass spectrometry; anti-V5 APs from tsA201 cells expressing NRX1A and PTPRS-V5 with or without T178B; normalized abundance of NRX1A by MS, two independent APs with two controls
Settings: partners not purified

T1 sequence (B0V2N1 30-1907): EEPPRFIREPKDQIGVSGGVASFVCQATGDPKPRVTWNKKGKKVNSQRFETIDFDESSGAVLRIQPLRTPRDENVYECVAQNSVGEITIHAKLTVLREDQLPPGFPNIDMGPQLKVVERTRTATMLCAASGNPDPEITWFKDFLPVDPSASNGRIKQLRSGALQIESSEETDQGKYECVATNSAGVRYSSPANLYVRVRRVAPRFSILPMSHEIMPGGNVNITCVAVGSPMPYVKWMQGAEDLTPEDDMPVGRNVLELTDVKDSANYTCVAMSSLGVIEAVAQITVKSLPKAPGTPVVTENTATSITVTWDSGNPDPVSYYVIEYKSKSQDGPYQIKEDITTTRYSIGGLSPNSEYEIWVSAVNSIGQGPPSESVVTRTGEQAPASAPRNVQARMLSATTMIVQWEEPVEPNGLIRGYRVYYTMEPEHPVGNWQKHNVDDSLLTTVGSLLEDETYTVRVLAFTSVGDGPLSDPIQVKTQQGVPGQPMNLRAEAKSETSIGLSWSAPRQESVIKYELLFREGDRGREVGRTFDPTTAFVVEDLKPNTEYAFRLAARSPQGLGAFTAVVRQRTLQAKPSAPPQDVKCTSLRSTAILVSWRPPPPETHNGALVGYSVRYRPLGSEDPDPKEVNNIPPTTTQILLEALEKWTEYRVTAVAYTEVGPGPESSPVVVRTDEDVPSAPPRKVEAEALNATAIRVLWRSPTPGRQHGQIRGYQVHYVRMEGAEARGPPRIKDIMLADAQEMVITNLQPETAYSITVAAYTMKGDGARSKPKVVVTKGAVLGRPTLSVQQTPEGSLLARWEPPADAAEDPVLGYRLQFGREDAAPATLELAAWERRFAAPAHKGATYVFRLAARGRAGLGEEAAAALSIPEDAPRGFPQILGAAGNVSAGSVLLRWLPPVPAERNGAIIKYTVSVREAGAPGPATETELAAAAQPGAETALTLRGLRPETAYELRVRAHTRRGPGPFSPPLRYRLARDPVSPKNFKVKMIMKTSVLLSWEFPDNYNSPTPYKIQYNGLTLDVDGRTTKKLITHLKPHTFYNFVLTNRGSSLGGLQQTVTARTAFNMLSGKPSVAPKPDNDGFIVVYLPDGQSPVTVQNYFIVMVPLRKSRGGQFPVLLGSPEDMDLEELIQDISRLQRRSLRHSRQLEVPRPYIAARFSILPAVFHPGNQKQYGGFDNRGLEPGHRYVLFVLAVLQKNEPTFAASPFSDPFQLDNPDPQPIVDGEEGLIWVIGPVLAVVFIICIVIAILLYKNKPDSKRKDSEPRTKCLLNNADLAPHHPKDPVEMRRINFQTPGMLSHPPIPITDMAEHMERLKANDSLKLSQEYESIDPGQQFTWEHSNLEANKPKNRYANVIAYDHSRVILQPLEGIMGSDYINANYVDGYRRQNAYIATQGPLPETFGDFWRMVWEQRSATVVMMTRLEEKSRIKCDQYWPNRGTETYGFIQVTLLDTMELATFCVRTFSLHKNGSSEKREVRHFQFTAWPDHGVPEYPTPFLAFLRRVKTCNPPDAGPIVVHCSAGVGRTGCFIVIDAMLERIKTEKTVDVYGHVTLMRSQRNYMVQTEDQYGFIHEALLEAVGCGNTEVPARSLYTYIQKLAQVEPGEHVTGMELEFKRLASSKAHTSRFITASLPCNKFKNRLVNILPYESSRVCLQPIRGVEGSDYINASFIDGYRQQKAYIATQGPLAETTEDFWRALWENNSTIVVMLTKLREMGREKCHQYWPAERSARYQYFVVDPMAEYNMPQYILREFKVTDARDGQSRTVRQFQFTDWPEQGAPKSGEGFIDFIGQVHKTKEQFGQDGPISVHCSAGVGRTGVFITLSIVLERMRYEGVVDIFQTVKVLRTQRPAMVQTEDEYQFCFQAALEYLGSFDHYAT

fold increase of the interaction with T178B against pairwise expression without T178B: 10 fold
B1: HA-tagged NRX1A (natural protein)
chain: not shown
notes: Neurexin-1-alpha; in pCAG, from Addgene (#58622); also called NRX1A-HA; source: tsA201 cells, transfected, CL-91-solubilised membrane fraction
